Laboratory results published in patent US12103951B2, “Use of CGRP receptor antagonists in neuroprotection and neurological disorders” (priority 2016, dated 2024).
Read-outs that look alike come from different tables or passages of the source. Marks after values point to notes of the source that are not given here.

Columns and labels:
[1] = 14-day subcutaneous rat study: mortality, clinical signs, body weight, feed consumption; format: in vivo, Sprague Dawley rats; conditions: s.c. daily 14 days
Experimental: (§1) Sprague Dawley rats were administered the CGRP antagonist daily via the subcutaneous route for a period of 14 days, resulting in the surprising effect of LDL lowering. Fifty six animals (36 males and 20 females) were distributed into four groups (consisting each of 5 males and 5 females per group and 4 extra males each for testing group as backups). The groups were as follows: G1—Control, G2—Low dose—100 mcg/kg, G3—Intermediate dose—300 mcg/kg, G4—High dose—1000 mcg/kg.
(§2) Rats from the treatment groups were dosed subcutaneously with CGRP receptor antagonists (SEQ ID NO: 1) reconstituted with normal saline at different dose levels per treatment group for 14 days. Control animals were dosed with the vehicle alone.
(§3) The acclimatization period was, at a minimum, 7 days. For the randomization, animals were selected and grouped based on stratified randomization by using body weights one day before dosing (day 0) using an Excel program. The route of administration of the antagonist was by a subcutaneous method. The frequency of the administration was daily for fourteen days. The dose volume was set at 5 ml/kg of body weight. The duration of the treatment was fourteen days with administration occurring approximately at the same time each day.
(§4) The following observations were recorded: • 1. […] Body Weight • Body weight was recorded on day 1, 7, 11 and 15. • 3. Feed Consumption • Feed consumption was recorded daily and reported weekly. • 4. Blood Collection and Laboratory Investigations • Blood samples for were collected from all animals on day 15. The animals were fasted overnight before blood sampling but allowed access to water ad libitum for hematology and biochemistry. Blood samples were drawn from the retro-orbital plexus using a micro-hematocrit heparinized glass capillary tube. Blood samples were centrifuged (3500 rpm) and after centrifugation plasma was separated for further analysis.

[2] = system: Total Cholesterol, Triglycerides, Low-density lipoprotein and High-density lipoprotein; format: in vivo, Sprague Dawley rats; design: HDL / LDL: unit not given here; conditions: for HDL / LDL / T. Chol / Trig: mean, n = 5; for effect on LDL levels in rats (words): normal rats, s.c. daily 14 days, especially male rats, every test dose 100 to 1000 mcg/kg
Experimental: as §1, §2, §3
While preparing the dose formulation, required quantities of test item (i.e. CGRP antagonist) was weighed separately. The required volume of normal saline was added to the test item. A clear solution was obtained after addition of normal saline to test item. The test item was administered subcutaneously at the desired dose level once daily for up to 14 days. Homogeneity of the test item in the vehicle was maintained during administration.
as §4
Total Cholesterol, Triglycerides, Low-density lipoprotein and High-density lipoprotein parameters are shown in Tables 4 and 5, for male and female rats, respectively. Data from the LDL analysis is shaded.

[3] = Rat laser glaucoma model: weight of animals; format: in vivo, Wistar rats
[4] = female rats, 100 mcg/kg b.w. s.c. daily 14 days, day 15
[5] = female rats, 300 mcg/kg b.w. s.c. daily 14 days, day 15
[6] = female rats, 1000 mcg/kg b.w. s.c. daily 14 days, day 15
[7] = male rats, 100 mcg/kg b.w. s.c. daily 14 days, day 15
[8] = male rats, 300 mcg/kg b.w. s.c. daily 14 days, day 15
[9] = male rats, 1000 mcg/kg b.w. s.c. daily 14 days, day 15

Q: With “NH2-Ala-Cys-Asp-Thr-Ala-Ala-Cys-Val-Leu-Gly-Arg-Leu-Ser-Gln-Glu-Leu-His-Arg-Leu-Gln-Thr-Tyr-Pro-Arg-Thr-Asn-Val-Gly-Ser-Lys-Ala-Phe-NH2 (H-ACDTAACVLGRLSQELHRLQTYPRTNVGSKAF-NH2; ends and bridges not checked) [SEQ ID NO: 1, peptide CGRP receptor antagonist]” as the substance, how does the food consumption ([1]; all study groups) read?
A: normal

Q: What about the “body weight among the groups” value [1] of the same substance?
A: no statistically significant difference

Q: What about the mortality or morbidity ([1]; 100, 300, 1000 mcg/kg) of the same substance?
A: no mortality or morbidity

Q: And the clinical signs ([1]; high dose = 1000 mcg/kg, all animals normalized from day 12)?
A: no clinical signs were observed during the entire study period except for four males from the high dose group that showed lethargy on day 10

Q: And the “other non-cholesterol related clinical biochemistry parameters” value ([2]; day 15, vs control, data not shown)?
A: none were significantly different from control

Q: What about the HDL [2, 4] of the same substance?
A: 59.00

Q: And the LDL [2, 4]?
A: 11.08

Q: And the “T. Chol” value [2, 4]?
A: 84.20 mg/dL

Q: And the Trig [2, 4]?
A: 70.60 mg/dL

Q: What about the HDL [2, 5] of the same substance?
A: 61.60

Q: And the LDL [2, 5]?
A: 12.60

Q: And the “T. Chol” value [2, 5]?
A: 91.00 mg/dL

Q: And the Trig [2, 5]?
A: 84.00 mg/dL

Q: And the HDL [2, 6]?
A: 54.80

Q: And the LDL [2, 6]?
A: 9.40

Q: What about the “T. Chol” value [2, 6] of the same substance?
A: 80.60 mg/dL

Q: What about the Trig [2, 6] of the same substance?
A: 82.00 mg/dL

Q: What about the HDL [2, 7] of the same substance?
A: 51.60

Q: What about the LDL [2, 7] of the same substance?
A: 2.96

Q: And the “T. Chol” value [2, 7]?
A: 78.00 mg/dL

Q: And the Trig [2, 7]?
A: 121.40* mg/dL

Q: What about the HDL [2, 8] of the same substance?
A: 46.00

Q: What about the LDL [2, 8] of the same substance?
A: 4.16

Q: What about the “T. Chol” value [2, 8] of the same substance?
A: 69.60 mg/dL

Q: And the Trig [2, 8]?
A: 97.20 mg/dL

Q: And the HDL [2, 9]?
A: 37.00

Q: And the LDL [2, 9]?
A: 4.72

Q: And the “T. Chol” value [2, 9]?
A: 58.20 mg/dL

Q: What about the Trig [2, 9] of the same substance?
A: 82.40 mg/dL

Q: And the “effect on LDL levels in rats (words)” value [2]?
A: lowered LDL concentrations in blood

Q: What about the “effect on LDL levels in rats (words)” value ([2]; listed as CGRP antagonist) of the same substance?
A: LDL lowering

Q: And the “effect on LDL levels in rats (words)” value ([2]; listed as CGRP receptor antagonist)?
A: substantial LDL lowering

Q: And the “effect on LDL levels in rats (words)” value ([2]; listed as peptide CGRP antagonist)?
A: lowering the LDL levels

Q: And the “difference in the weight between the groups” value ([3]; Mann-Whitney U test, P>0.05)?
A: no significant difference

Q: And the Baseline weight ([3]; mean ± SD, baseline)?
A: 538 ± 21 g

Q: And the “Weight prior to sacrifice” value ([3]; mean ± SD, end of two-week study)?
A: 524 ± 27 g
